Legend:
[1] = molecular target: T1, hANGPTL3(17-170)-His (human, UniProt Q9Y5C1 17-170); assay: SPR Biacore, antigen captured, 37C, pH 7.4, HBS-EP
T1 construct: also called N-terminal coiled-coil domain of hANGPTL3 with a C-terminal hexahistidine tag; Human ANGPTL3 (17-170)-His
T1 sequence: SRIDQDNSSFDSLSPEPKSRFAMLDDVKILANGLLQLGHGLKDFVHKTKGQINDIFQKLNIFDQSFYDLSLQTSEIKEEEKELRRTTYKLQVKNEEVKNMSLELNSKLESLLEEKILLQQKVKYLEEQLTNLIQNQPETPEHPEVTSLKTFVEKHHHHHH

[2] = molecular target: T2, mANGPTL3(17-240)-His (Mus musculus, UniProt Q9R182 17-240); assay: SPR Biacore, antigen captured, 37C, pH 7.4, HBS-EP
T2 construct: also called N-terminal coiled-coil domain of ANGPTL3 from Mus musculus with a hexahistidine tag; Mouse ANGPTL3 (17-240)-His
T2 sequence: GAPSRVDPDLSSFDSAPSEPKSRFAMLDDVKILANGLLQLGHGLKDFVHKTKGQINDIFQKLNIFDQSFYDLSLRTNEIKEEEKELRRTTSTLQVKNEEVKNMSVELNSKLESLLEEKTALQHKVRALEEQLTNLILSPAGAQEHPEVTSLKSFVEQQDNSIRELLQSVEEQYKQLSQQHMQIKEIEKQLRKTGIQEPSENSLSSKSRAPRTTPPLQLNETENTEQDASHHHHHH

[3] = molecular target: T3, rANGPTL3(17-240)-mmH (Rattus norvegicus); assay: SPR Biacore, antigen captured, 37C, pH 7.4, HBS-EP
T3 construct: also called N-terminal coiled-coil domain of ANGPTL3 from Rattus norvegicus with myc-myc-hexahistidine tag
T3 chain: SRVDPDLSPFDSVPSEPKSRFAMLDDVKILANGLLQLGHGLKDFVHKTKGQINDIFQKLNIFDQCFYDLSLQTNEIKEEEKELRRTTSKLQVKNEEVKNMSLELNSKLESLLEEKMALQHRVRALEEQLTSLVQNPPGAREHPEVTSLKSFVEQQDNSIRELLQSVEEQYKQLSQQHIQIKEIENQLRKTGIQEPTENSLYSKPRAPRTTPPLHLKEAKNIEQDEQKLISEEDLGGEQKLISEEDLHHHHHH

[4] = molecular target: T4, N-terminal biotin tagged Peptide 1 (human, N-terminal biotin tag); assay: OCTET RED label-free biosensor; biotinylated peptide on streptavidin-coated tips dipped into 1 uM antibody, binding monitored for 2.5 minutes
T4 construct: Immobilised on streptavidin biosensor tips; also called control ANGPTL4 peptide; hANGPTL4 peptide
T4 peptide: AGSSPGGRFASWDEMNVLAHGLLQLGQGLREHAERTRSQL
Description: (§1) To assess the binding of the anti-ANGPTL3 antibody H4H1276S to peptides derived from the N-terminal coiled-coil region of ANGPTL3, a label-free biosensor binding assay was performed using OCTET® RED system (ForteDo, Inc.). […] The peptide-coated biosensor tips were then dipped into wells containing 1 μM of either anti-ANGPTL3 antibody H4H1276S or an isotype-matched negative control antibody, and binding was monitored for 2.5 minutes. It was observed that H4H1276S binds to the ANGPTL3 linear sequence defined by Peptide 2 but not the overlapping but distinct sequence defined by Peptide 3 (see also FIG. 1). The isotype control antibody also served as a positive control for loading of Peptide 1 (i.e., hANGPTL4 peptide) onto the biosensor, because this isotype control antibody specifically recognizes hANGPTL4.

[5] = molecular target: T5, N-terminal biotin tagged Peptide 2 (human, N-terminal biotin tag); assay: as above
T5 construct: Immobilised on streptavidin biosensor tips; also called ANGPTL3 peptide
T5 peptide: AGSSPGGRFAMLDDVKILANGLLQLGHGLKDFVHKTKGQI
Description: as §1

[6] = molecular target: T6, C-terminal biotin tagged Peptide 2 (human, C-terminal biotin tag); assay: as above
T6 construct: Immobilised on streptavidin biosensor tips; also called ANGPTL3 peptide
T6 peptide: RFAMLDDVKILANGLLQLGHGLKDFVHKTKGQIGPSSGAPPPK
Description: as §1

[7] = molecular target: T7, N-terminal biotin tagged Peptide 3 (human, N-terminal biotin tag); assay: as above
T7 construct: Immobilised on streptavidin biosensor tips; also called ANGPTL3 peptide
T7 peptide: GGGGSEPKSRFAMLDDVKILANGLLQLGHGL
Description: as §1

[8] = molecular target: T8, C-terminal biotin tagged Peptide 3 (human, C-terminal biotin tag); assay: as above
T8 construct: Immobilised on streptavidin biosensor tips; also called ANGPTL3 peptide
T8 peptide: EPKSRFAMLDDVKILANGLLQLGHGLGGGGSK
Description: as §1

- Kd [1]: 1.52 nM
- koff [1]: 0.00241 s⁻¹
- kon [1]: 1.59e+06 M⁻¹ s⁻¹
- t1/2 [1]: 4.8 min
- Kd [2]: 1.18 nM
- koff [2]: 0.000964 s⁻¹
- kon [2]: 819000 M⁻¹ s⁻¹
- t1/2 [2]: 12 min
- Kd [3]: 0.94 nM
- koff [3]: 0.00193 s⁻¹
- kon [3]: 2.05e+06 M⁻¹ s⁻¹
- t1/2 [3]: 6 min
- binding result [4]: no binding (tested: 1 uM)
- binding result [5]: binds
- binding result [6]: binds
- binding result [7]: no binding (tested: 1 uM)
- binding result [8]: no binding (tested: 1 uM)
B1: H4H1276S (antibody, IgG4, V domains shown)
VH: EVQLVESGGGVIQPGGSLRLSCAASGFTFDDYAMNWVRQGPGKGLEWVSAISGDGGSTYYADSVKGRFTISRDNSKNSLYLQMNSLRAEDTAFFYCAKDLRNTIFGVVIPDAFDIWGQGTMVTVSS
VL: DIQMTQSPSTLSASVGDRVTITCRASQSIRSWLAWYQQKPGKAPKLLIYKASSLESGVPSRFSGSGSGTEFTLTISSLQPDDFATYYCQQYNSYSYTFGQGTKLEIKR

From US20150197564A1 (Regeneron, published 2015)
